Here are results for one molecule from PMC8053115.

For this data set, the target named is T1, NP C-terminal tail peptide (Influenza A virus A/HK/483/97 (H5N1), UniProt Q9PX50).
T1 chain: DNAEEYDN
Kind of data set: MST.

For the molecule UUUUUUUUU (XNA, 2'-O-methyl) [Cy5 9-mer poly-uridine RNA], the binding result is “no binding”.
